Measured values taken from publication PMC9273042 (Science Immunology, 2022).

B1: IMM20184 Fab (Fab, V domains shown)
VH: EVQLVESGGGLVQPGGSLRLSCSASGFTFSSFWMSWVRQAPGKGLEWVATIREDGSEKYYVDSVKGRFSISRDNAKNSLYLQMNSLRAEDTAVYYCARSKWLRGSFDYWGQGTLVTVSS
VL: NFMLTQPHSVSESPGKTVTISCTRRSGSIASNYVQWYQQRPGSAPTTVIYEDNQRPSGVPDRFSGSIDSSSNSASLTISGLQTEDEADYYCQSYDSSNPPGASWVFGGGTKLTVL
notes: Fab of m1
B2: IMM20184 (antibody, V domains shown)
VH: B1 VH
VL: B1 VL
B3: IMM20190 (antibody, V domains shown)
VH: EVQLVESGGGLVQPGGSLRLSCSASGFTVSSNYMSWVRQAPRKGLEWVSVIYAGGSTFYADSVKGRFTISRDNSKNTLLLQMNSLRAEDTAVYYCARDRGGYLDYWGQGTLVTVSS
VL: DIQMTQSPSSLSASVGDRVTITCRASQGISNYLAWYQQKPGKVPKLLIYAASTLQSGVPSRFSGSGSGTDFTLTISSLQPEDVATYYCQKYNSAPGLTFGGGTKVEIK
B4: IMM20190 Fab (Fab, V domains shown)
VH: B3 VH
VL: B3 VL
notes: Fab of m2
B5: IMM20253 (antibody, V domains shown)
VH: QVQLVESGGGVVQPGRSLRLSCTASGFTFSTYGMHWVRQAPGKGLEWVAVISYDGSSKHYAESVKGRFTISRDNSNNTLYLQMNRLRAEDTAVYYCARDGQPPGWGNYFDYWGQGTLVTVAS
VL: SYVLTQPPSVSVAPGKTARITCGGNGIGSKSVYWYQQKPGQAPEVVVYDDSDRPSGIPERFSGSNSGNTATLTISRVEAGDEADYYCQVWDSSSDPWVFGGGTKLTVL
B6: IMM20253 Fab (Fab, V domains shown)
VH: B5 VH
VL: B5 VL
notes: Fab of m3

Columns and labels:
Conditions in all cases: both partners purified
[1] = molecular target: SARS-CoV-2 S 6P trimer (SARS-CoV-2, Wuhan-Hu-1/WA1 type, S-6P, stabilised); experiment: cryo-EM structure
[2] = molecular target: soluble RBD (WA1/2020 variant) (SARS-CoV-2, WA1/2020, UniProt P0DTC2); experiment: SPR
[3] = molecular target: Trimer Spike (soluble, WA1/2020 variant) (SARS-CoV-2, WA1/2020, UniProt P0DTC2); experiment: SPR
[4] = molecular target: T1, RBD, REF variant (Wuhan-1) (SARS-CoV-2, UniProt P0DTC2); experiment: ELISA
T1 construct: source: bought: SinoBio

[5] = molecular target: T2, RBD, UK variant (Alpha) (SARS-CoV-2, UniProt P0DTC2); experiment: ELISA
T2 construct: source: bought: SinoBio

[6] = molecular target: T3, RBD, SA variant (Beta) (SARS-CoV-2, UniProt P0DTC2); experiment: ELISA
T3 construct: source: bought: SinoBio

Row | Binder | stoichiometry N [1] | Kd [2] [nM] | koff [2] [s⁻¹] | kon [2] [M⁻¹ s⁻¹] | Kd [3] [nM] | koff [3] [s⁻¹] | kon [3] [M⁻¹ s⁻¹] | percent inhibition of ACE2 binding [4] [%] | percent inhibition of ACE2 binding [5] [%] | percent inhibition of ACE2 binding [6] [%]
1 | B1 | 3 Fab:Trimer | – | – | – | – | – | – | – | – | –
2 | B2 | – | 2.2 | 0.00131 | 595000 | 7.35 | 0.000229 | 31200 | – | – | –
3 | B3 | – | 1.87 | 0.000376 | 202000 | 6.59 | 0.000195 | 29500 | – | – | –
4 | B4 | 3 Fab:Trimer | – | – | – | – | – | – | – | – | –
5 | B5 | – | 0.157 | 0.000218 | 1.39e+06 | 1.44 | 0.000117 | 81300 | ≤ 40 | ≤ 40 | ≤ 40
6 | B6 | 1 Fab:Trimer | – | – | – | – | – | – | – | – | –
